Experimental data taken from US20160185837A1 (AstraZeneca / MedImmune, published 2016).
Residue numbers refer to the chain shown, from its start.

T1: human GIP receptor (human, UniProt P48546 22-466)
T1 sequence (looked up): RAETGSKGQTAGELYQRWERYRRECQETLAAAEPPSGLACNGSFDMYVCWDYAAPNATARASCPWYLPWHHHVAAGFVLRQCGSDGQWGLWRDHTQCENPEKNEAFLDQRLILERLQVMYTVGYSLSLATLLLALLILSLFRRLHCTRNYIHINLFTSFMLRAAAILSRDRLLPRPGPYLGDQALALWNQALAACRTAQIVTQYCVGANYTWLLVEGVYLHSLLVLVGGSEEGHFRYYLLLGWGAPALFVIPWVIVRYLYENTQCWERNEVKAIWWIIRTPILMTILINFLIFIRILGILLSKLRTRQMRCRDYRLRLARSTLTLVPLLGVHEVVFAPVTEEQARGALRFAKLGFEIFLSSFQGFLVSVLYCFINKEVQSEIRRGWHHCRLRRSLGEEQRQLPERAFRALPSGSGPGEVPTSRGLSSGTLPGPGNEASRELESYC

T2: mouse GLP-1 receptor (mouse, UniProt O35659 22-463)
T2 sequence (looked up): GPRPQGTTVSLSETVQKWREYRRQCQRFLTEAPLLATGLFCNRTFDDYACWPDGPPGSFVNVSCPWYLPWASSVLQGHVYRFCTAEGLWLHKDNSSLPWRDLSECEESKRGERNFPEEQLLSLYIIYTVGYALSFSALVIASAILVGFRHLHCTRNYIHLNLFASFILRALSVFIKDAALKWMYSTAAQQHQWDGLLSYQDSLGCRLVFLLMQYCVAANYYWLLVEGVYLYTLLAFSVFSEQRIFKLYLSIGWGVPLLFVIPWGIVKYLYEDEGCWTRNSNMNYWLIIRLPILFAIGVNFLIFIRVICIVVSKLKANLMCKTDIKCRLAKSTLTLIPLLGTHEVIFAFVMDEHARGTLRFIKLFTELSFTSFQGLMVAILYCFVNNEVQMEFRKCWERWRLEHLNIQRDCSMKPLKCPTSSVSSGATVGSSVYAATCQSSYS

T3: mouse GIP receptor (mouse, UniProt Q0P543 19-460)
T3 sequence (looked up): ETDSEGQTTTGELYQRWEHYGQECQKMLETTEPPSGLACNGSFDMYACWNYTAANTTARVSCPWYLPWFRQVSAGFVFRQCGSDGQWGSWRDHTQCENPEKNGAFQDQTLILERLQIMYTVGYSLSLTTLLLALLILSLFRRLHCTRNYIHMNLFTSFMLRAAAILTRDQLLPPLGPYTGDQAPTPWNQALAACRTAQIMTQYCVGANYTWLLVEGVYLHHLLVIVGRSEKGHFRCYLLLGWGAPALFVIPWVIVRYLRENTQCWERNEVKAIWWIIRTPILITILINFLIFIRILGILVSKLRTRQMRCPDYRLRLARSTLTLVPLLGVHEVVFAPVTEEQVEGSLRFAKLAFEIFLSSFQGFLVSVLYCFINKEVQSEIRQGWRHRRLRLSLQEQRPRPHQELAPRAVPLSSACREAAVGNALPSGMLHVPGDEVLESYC

T4: rat GLP-1 receptor (rat, UniProt P32301 22-463)
T4 sequence (looked up): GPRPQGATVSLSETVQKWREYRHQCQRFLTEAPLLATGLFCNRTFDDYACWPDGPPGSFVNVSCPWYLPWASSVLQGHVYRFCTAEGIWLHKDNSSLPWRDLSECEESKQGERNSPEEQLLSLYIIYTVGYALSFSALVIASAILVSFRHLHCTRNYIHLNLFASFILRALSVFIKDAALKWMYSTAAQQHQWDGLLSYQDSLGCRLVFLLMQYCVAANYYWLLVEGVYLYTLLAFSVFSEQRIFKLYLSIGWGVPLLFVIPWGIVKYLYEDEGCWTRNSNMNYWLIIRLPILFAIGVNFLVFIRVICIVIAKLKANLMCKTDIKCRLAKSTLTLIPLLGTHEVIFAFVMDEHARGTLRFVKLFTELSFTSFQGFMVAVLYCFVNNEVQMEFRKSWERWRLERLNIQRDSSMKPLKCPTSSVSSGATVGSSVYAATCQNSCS

T5: rat GIP receptor (rat, UniProt P43219 19-455)
T5 sequence (looked up): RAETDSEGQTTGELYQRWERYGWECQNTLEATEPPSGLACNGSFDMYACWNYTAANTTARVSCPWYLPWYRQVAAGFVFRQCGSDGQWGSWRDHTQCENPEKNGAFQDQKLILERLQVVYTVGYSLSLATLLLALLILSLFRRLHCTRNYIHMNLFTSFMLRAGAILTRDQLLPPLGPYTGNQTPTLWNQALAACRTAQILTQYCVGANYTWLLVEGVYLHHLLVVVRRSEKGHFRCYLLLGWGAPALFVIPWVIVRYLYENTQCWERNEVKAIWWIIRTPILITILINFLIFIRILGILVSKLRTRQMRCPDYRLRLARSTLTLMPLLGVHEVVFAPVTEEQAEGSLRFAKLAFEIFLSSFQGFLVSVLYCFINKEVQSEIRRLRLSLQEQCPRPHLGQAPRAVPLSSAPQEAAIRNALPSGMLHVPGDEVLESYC

B1: IP213 (Fc fusion)
chain: YSEGTFTSDYSKLLEEEAVRLFIEWLLAGGAAAGGSGSTASSGSGSATGGGGAATHTCPPCPAPEF
B2: IP297 (Fc fusion)
chain: YSEGTFTSDYSKLLEEEAVRLFIEWLLAGGGGGGGGGGGGGGGGGGGGGGGGGACPPC
B3: IP291 (Fc fusion)
chain: YSEGTFTSDYSKLLEEECVRLFIEWLVKGGPGGGAPPPGCGGGGGGGGGGGGGGGGGACPPC
B4: IP292 (Fc fusion)
chain: B3 chain with C18A, L21C, P38C, C40G
B5: IP293 (Fc fusion)
chain: YSEGTFTSDYSKLLEEEAVRCFIECLVKGPGGGGGGGGGGGGGGGGGGGGACPPC
B6: IP294 (Fc fusion)
chain: B5 chain with C21L, E24C, C25W, K28C
B7: IP296 (Fc fusion)
chain: YSEGTFTSDYSKLLEEEAVRCFIEWLVKGGPSSGAPPCSGGGGGGGGGGGGGGGGGGGGGGGGACPPC
B8: IP280 (Fc fusion)
chain: YSEGTFTSDYSKLLEEEAVRLFIEWLVKGGPSSGAPPPSGGGGGSGGGGSGGGGSGGGGSATHTCPPC
B9: IP295 (Fc fusion)
chain: B8 chain with V27L, K28A
B10: IP279 (Fc fusion)
chain: YSEGTFTSDYSKLLEEEAVRLFIEWLVKGPSSGAPPPSGGGGGSGGGGSGGGGSGGGGSATHTCPPC

Molecular target: human GLP-1 receptor (human, UniProt P43220 24-463)
Assay: cell-based or functional assay

| Binder | cAMP EC50 | cAMP EC50, Batch 2 | cAMP EC50, Batch 3 | cAMP EC50, Batch 4 |
| --- | --- | --- | --- | --- |
| B1 | 0.087 nM |  |  |  |
| B2 | 0.19 nM |  |  |  |
| B3 | 12 nM |  |  |  |
| B4 | 0.26 nM | 1.1 nM |  |  |
| B5 | 1.6 nM |  |  |  |
| B6 | 27 nM |  |  |  |
| B7 | 0.57 nM | 0.39 nM | 0.37 nM | 0.29 nM |
| B8 | 0.077 nM | 0.058 nM | 0.08 nM |  |
| B9 | 0.091 nM | 0.14 nM | 0.15 nM |  |
| B10 | 0.1 nM |  |  |  |

Molecular target: human glucagon receptor (human, UniProt P47871 26-477)
Assay: cell-based or functional assay

| Binder | cAMP EC50 | cAMP EC50, Batch 2 | cAMP EC50, Batch 3 | cAMP EC50, Batch 4 |
| --- | --- | --- | --- | --- |
| B1 | 18 nM |  |  |  |
| B2 | 31 nM |  |  |  |
| B3 | > 10600 nM |  |  |  |
| B4 | > 13600 nM | > 14900 nM |  |  |
| B5 | > 13000 nM |  |  |  |
| B6 | > 6810 nM |  |  |  |
| B7 | > 1120 nM | > 784 nM | > 4490 nM | 6700 nM |
| B8 | 520 nM | 270 nM | 280 nM |  |
| B9 | 41 nM | 32 nM | 23 nM |  |
| B10 | 170 nM |  |  |  |

Molecular target: T1, human GIP receptor
Assay: cell-based or functional assay

| Binder | cAMP EC50 | cAMP EC50, Batch 2 | cAMP EC50, Batch 3 | cAMP EC50, Batch 4 |
| --- | --- | --- | --- | --- |
| B1 | 0.0059 nM |  |  |  |
| B2 | 0.015 nM |  |  |  |
| B3 | 0.12 nM |  |  |  |
| B4 | 0.043 nM | 0.046 nM |  |  |
| B5 | 1.2 nM |  |  |  |
| B6 | 1.3 nM |  |  |  |
| B7 | 0.018 nM | 0.021 nM | 0.014 nM | 0.011 nM |
| B8 | 0.0056 nM | 0.0045 nM | 0.0064 nM |  |
| B9 | 0.0043 nM | 0.012 nM | 0.0086 nM |  |
| B10 | 0.01 nM |  |  |  |

Molecular target: T2, mouse GLP-1 receptor
Assay: cell-based or functional assay

| Binder | cAMP EC50 | cAMP EC50, Batch 2 | cAMP EC50, Batch 4 | cAMP EC50, Batch 3 |
| --- | --- | --- | --- | --- |
| B1 | 0.82 nM |  |  |  |
| B2 | 0.82 nM |  |  |  |
| B3 | 120 nM |  |  |  |
| B4 | 1.2 nM | 1.32 nM |  |  |
| B5 | 13 nM |  |  |  |
| B6 | 350 nM |  |  |  |
| B7 | 1.4 nM | 0.6 nM | 0.64 nM |  |
| B8 | 0.21 nM |  |  |  |
| B9 | 0.35 nM | 0.241 nM |  | 0.34 nM |
| B10 | 0.22 nM |  |  |  |

Molecular target: T3, mouse GIP receptor
Assay: cell-based or functional assay

| Binder | cAMP EC50 | cAMP EC50, Batch 2 | cAMP EC50, Batch 4 | cAMP EC50, Batch 3 |
| --- | --- | --- | --- | --- |
| B1 | 2.5 nM |  |  |  |
| B2 | 8.1 nM |  |  |  |
| B3 | 680 nM |  |  |  |
| B4 | 66 nM | 55.4 nM |  |  |
| B5 | 7800 nM |  |  |  |
| B6 | > 6800 nM |  |  |  |
| B7 | 110 nM | 55 nM | 65 nM |  |
| B8 | 8.8 nM |  |  |  |
| B9 | 0.66 nM | 1.2 nM |  | 0.571 nM |
| B10 | 43 nM |  |  |  |

Molecular target: T4, rat GLP-1 receptor
Assay: cell-based or functional assay

| Binder | cAMP EC50 | cAMP EC50, Batch 2 | cAMP EC50, Batch 4 | cAMP EC50, Batch 3 |
| --- | --- | --- | --- | --- |
| B1 | 0.087 nM |  |  |  |
| B2 | 0.028 nM |  |  |  |
| B3 | 3 nM |  |  |  |
| B4 | 0.037 nM | 0.0432 nM |  |  |
| B5 | 0.45 nM |  |  |  |
| B6 | 7.1 nM |  |  |  |
| B7 | 0.055 nM | 0.028 nM | 0.027 nM |  |
| B8 | 0.027 nM |  |  |  |
| B9 | 0.023 nM | 0.018 nM |  | 0.0286 nM |
| B10 | 0.024 nM |  |  |  |

Molecular target: T5, rat GIP receptor
Assay: cell-based or functional assay

| Binder | cAMP EC50 | cAMP EC50, Batch 2 | cAMP EC50, Batch 4 | cAMP EC50, Batch 3 |
| --- | --- | --- | --- | --- |
| B1 | 0.054 nM |  |  |  |
| B2 | 0.089 nM |  |  |  |
| B3 | 1.4 nM |  |  |  |
| B4 | 0.29 nM | 0.186 nM |  |  |
| B5 | 16 nM |  |  |  |
| B6 | 100 nM |  |  |  |
| B7 | 0.46 nM |  | 0.14 nM |  |
| B8 | 0.046 nM |  |  |  |
| B9 | 0.041 nM | 0.0658 nM |  | 0.025 nM |
| B10 | 0.097 nM |  |  |  |
